# B1: NBRE oligonucleotide (dsDNA)
# DNA 1: GGGGCTCGTGCGAAAAGGTCAAGCGCTA
# DNA 2: TAGCGCTTGACCTTTTCGCACGAGCCCC
# Target: GST-Nur77 (UniProt P12813 1-601)
# Assay: EMSA; not given in material (EMSA according to previously described procedures, ref 34)
# Settings: protein: recombinant; tags: GST; label: 32P (alpha-32P dCTP labeling); annealed to complementary oligonucleotide
# Sequence of GST-Nur77 (P12813 whole entry): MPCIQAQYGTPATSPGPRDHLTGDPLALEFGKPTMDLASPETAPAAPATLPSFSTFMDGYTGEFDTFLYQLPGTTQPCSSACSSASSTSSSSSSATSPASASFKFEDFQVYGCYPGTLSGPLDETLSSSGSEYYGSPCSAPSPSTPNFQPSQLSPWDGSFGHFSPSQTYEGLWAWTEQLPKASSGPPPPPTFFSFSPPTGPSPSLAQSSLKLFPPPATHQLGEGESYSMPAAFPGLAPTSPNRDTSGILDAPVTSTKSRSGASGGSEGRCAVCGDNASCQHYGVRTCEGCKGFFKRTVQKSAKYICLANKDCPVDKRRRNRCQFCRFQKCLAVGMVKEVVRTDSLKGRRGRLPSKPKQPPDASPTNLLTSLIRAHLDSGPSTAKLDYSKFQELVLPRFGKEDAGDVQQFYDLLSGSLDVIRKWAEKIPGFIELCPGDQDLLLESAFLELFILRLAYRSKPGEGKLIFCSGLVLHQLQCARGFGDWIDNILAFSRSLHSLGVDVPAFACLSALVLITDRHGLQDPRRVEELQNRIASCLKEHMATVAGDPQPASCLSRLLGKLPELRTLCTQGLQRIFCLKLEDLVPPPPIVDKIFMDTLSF
binder,measurement,value
B1,binding result,binds

# Reference: article PMC4139307, “Transforming Growth Factor-β1 Signaling Represses Testicular Steroidogenesis through Cross-Talk with Orphan Nuclear Receptor Nur77”
